In patent US20050287144A1:

Target: endogenous NIK of mouse embryonic fibroblast cells (mouse) (UniProt Q9WUL6)
Assay: cell-based or functional assay

Sequence of endogenous NIK of mouse embryonic fibroblast cells (mouse) (Q9WUL6 whole entry): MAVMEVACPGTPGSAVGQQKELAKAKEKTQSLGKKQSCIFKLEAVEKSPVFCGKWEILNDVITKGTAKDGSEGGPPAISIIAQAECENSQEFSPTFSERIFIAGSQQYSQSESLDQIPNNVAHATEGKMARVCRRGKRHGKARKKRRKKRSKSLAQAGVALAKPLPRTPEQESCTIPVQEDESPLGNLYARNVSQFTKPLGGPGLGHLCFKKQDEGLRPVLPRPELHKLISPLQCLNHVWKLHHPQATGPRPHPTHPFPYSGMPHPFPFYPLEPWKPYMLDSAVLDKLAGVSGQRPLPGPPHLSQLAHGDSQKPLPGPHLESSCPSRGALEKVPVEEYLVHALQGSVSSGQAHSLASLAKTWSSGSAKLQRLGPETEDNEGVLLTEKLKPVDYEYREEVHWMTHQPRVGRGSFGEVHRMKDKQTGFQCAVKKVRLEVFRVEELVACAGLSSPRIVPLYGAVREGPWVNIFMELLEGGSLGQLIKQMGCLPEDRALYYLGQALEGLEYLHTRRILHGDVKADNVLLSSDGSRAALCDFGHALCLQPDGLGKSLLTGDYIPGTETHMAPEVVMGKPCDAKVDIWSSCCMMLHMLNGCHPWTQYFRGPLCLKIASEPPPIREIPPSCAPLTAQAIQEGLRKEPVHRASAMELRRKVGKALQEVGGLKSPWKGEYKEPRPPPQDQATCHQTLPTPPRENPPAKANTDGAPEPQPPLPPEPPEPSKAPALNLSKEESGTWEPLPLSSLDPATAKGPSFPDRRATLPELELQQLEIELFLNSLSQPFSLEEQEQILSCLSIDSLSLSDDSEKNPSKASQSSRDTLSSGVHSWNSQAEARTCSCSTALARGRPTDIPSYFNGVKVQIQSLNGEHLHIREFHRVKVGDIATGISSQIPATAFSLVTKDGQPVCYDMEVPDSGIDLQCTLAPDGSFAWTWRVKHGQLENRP

Substance	NF-κB activation by LTβ, luciferase reporter, mouse embryonic fibroblast cells [fold]	decrease in NF-κB activation by LTβ, luciferase reporter, mouse embryonic fibroblast cells [%]
GST fusion protein with the intracellular domain of cγc (from UniProt P31785 284-369)	2.5	
GST-41MDD fusion protein (from UniProt P31785 329-369)		50
